The values below come from US12611443B2, “Methods and compositions related to therapeutic peptides for cancer therapy” (THE UNIVERSITY OF CHICAGO, priority 2018, dated 2026).

Experiment [1] deals with human/murine cancer cells. Put plainly: In vitro cell viability of cancer cells (calcein-AM, CASP3, ANXA5). The format is cell-based. As to conditions: for effect of ELANE inhibitor treatment of ELANE or PMN media on cancer cell killing: PMSF 1 mM or A1AT 42 nM. An excerpt: Cell lines. The ovarian cancer cell lines—CAOV3, OVCAR3, OVCAR4, OVCAR5, A2780, A2780/CP70, HeyA8, TykNu, SKOV3, ID8, and ID8p53-/- were a gift from Dr. Ernst Lengyel, University of Chicago. The breast cancer cell lines—MDA-MB-231, MDA-MB-231.BM1, MCF-7, M6C, E0771, and E0771.LMB were a gift from Dr. Marsha Rosner, University of Chicago. The colon carcinoma cell line RKO, glioblastoma cancer cell line T98G, osteosarcoma cell lines U-2OS and Saos-2, and the hepatocellular carcinoma cell line HepG2 were a gift from Dr. Kay McLeod, University of Chicago. The lung cancer cell line NCI-H552 was a gift from Dr. Stephanie Huang, University of Chicago, and A549 and LLC1 cells were purchased from ATTC. The melanoma cell lines—B16F10, Mel888, Mel1106, and SK-MEL-28 cells were a gift from Dr. Thomas Gajewski, University of Chicago. The pancreatic cancer cell line PANC1 was a gift from Dr. Yamuna Krishnan, University of Chicago. The leukemia cell line K562 was a gift from Dr. Amittha Wickrema, University of Chicago.
The prostate cancer cell lines—CWR22Rv1, LAPC4, and LNCaP were a gift from Dr. Donald Vander Griend, University of Chicago. The neuroblastoma cell lines—SK-N-BE(2) and NBL-WN cells were a gift from Dr. Lucy Godley, University of Chicago.
Neutrophil media collections. Freshly isolated human or murine neutrophils were plated in serum-free DMEM for 24 h. Conditioned media was collected, spun at 500×g for 5 min, and media protein levels were determined with a Bradford assay (Biorad).
PMN media manipulations. For boiling, PMN media was boiled at 95° C. for 5 min and spun at 15,000×g for 10 min to remove precipitated proteins. For dialysis, PMN media was placed into a Slide-a-Lyzer™ cassette (3.5 kDa cutoff, ThermoFisher Scientific) and dialyzed against 2×4L of PBS at 4° C. for 4 h. For PMSF-inactivation, PMN media was treated with PMSF (1 mM, Sigma) or A1AT (42 nM, Athens Research & Technology) and incubated at room temperature for up to 2 h. Residual PMSF was eliminated with a PD-10 desalting column (GE Healthcare Life). Inhibition of ELANE catalytic activity was confirmed using a chromogenic substrate activity assay (see below). For serum-spiking experiments, human, mouse, or fetal bovine serum (1% or 10%) was added to PMN media prior to or after exposing cancer cells. For immune-depletion studies, ELANE or ECP were immunoprecipitated using anti-ELANE (N2C3, GeneTx) or anti-ECP (MB S2535165, MyBioSource) coupled to Pierce™ Protein A/G Magnetic Beads (ThermoFisher Scientific).
(§1) In vitro cell viability assays. […] Luminescence was measured using a Victor X3 luminometer (PerkinElmer).

For experiment [2], the system named is human and murine cancer cells. Put plainly: CD95 overexpression, ELANE-mediated apoptosis (ANXA5). Type of experiment: cell-based. As to conditions: ELANE 40 nM, ANXA5 at 30 min. The method, then: FIGS. 2A-2D Overexpressing CD95 proteins accelerates cancer cell killing by ELANE. Polycistronic adenoviral vectors were prepared to express the human and mouse CD95 sequences followed by the Encephalomyocarditis virus (EMCV) internal ribosome entry site and dTomato sequence under the control of the cytomegalovirus (CMV) promoter. Human and murine cancer cells or non-cancer cells were transduced to over-express full-length CD95, N-terminal CD95 (human: aa 1-209; mouse: aa 1-204), or C-terminal CD95 (human: aa 212-335; mouse: aa 204-327). (A): Transduction efficiency quantified by dTomato (Left). CD95 levels in dTomato− and dTomato+ cells quantified by geometric mean (MFI) (Middle). ANXA5 levels in dTomato− and dTomato+ cells 30 min after treatment with ELANE (40 nM) (Right). Representative data for A549 cells are shown. (B-C): Quantification of transduction efficiency (B) and relative CD95 overexpression (C) for cancer cells and non-cancer cells. (D): Quantification of ANXA5 levels following ELANE treatment (40 nM, 30 min) for mouse cancer cell lines (E0771, B16F10). *, p<0.05 Student's t-test.
as §1
(§2) CD95 overexpression studies. Polycistronic adenoviral vectors were prepared to express the human and mouse CD95 sequences followed by the Encephalomyocarditis virus (EMCV) internal ribosome entry site and dTomato sequence under the control of the cytomegalovirus (CMV) promoter (VectorBuilder). Human and murine cancer cells or normal or non-cancer cells were transduced to over-express full-length CD95, N-terminal CD95 (human: aa 1-209; mouse: aa 1-204), C-terminal CD95 (human: aa 212-335; mouse: aa 204-327), or C-terminal CD95 that mimicked ELANE cleavage at site 1 (human: aa 221-335), site 2 (human: aa 212-331), or both sites (aa 221-331). Cancer cells or normal or non-cancer cells were transduced with adenoviruses at an MOI of 50-250 depending on cell type, and expression of dTomato and CD95 (human: 558814; mouse, mouse: 565130, BD Biosciences) were confirmed by flow cytometry. A vector encoding GFP (Vector Builders) was used as a control.

The subject of the next experiment is cancer cells. Put plainly: CD95 protein overexpression in cancer cells, viability in absence of ELANE (calcein-AM). As to conditions: transient overexpression. The format is cell-based, human. The method, then: FIGS. 1A-1K. ELANE cleaves CD95 to selectively kill cancer cells. (A): Heatmap summary of ELANE's effects on survival, stress, and apoptosis pathways in cancer cells and healthy cells. (B-C): Cancer cells were treated with ELANE (100 nM) and CD95 cleavage was assessed by western blotting using anti-N-terminal (B) or anti-C-terminal antibodies (C). *, lower molecular weight CD95 fragment. (D): Cancer cells or non-cancer cells were transduced to overexpress CD95 proteins, and effects on ELANE-mediated apoptosis were quantified by ANXAS at 30 min. n=2/group. See FIG. 1I for transduction and CD95 over-expression. (E): Cleavage of recombinant human CD95 N-terminal (aa 1-173) or C-terminal (aa 212-335) proteins by ELANE was assessed by SDS-PAGE and Coomassie blue staining. (F): Bands from (E) were digested with trypsin and analyzed by mass spectrometry to identify putative ELANE cleavage sites (i.e., peptides with non-tryptic ends). Major non-tryptic peptides were quantified by ion chromatograms. (G): Schematic of ELANE cleavage sites in CD95. […] (H): Cleavage of recombinant peptides corresponding to aa 214-231 and aa 317-335 in CD95 by ELANE was monitored by mass spectrometry. (I): Cancer cells or non-cancer cells were treated with fluorescein-labeled ELANE for 10 min and uptake was visualized by immunofluorescence. (J): ELANE catalytic activity in cancer cell lysates following exposure to ELANE for 30 mins in the presence and absence of Dynasore (60 μM endocytosis inhibitor). Effect of Dynasore on cancer cell killing capability of ELANE (measured by calcein-AM). n=6/group. (K): Cancer cells or non-cancer cells were transduced to overexpress various CD95 proteins, and cell viability in the absence of ELANE was determined by calcein-AM. n=10/group. *, p<0.05 Student's t-test.
as §1, §2

“Also recorded” adds a separate entry of the source.

Turning to `O=S(=O)(F)Cc1ccccc1` [PMSF], the “effect of ELANE inhibitor treatment of ELANE or PMN media on cancer cell killing” value in experiment [1] is “eliminated the ability of PMN media to kill cancer cells in vitro and in vivo; also recorded: protects cancer cells from apoptosis”.

As to “A1AT: alpha-1-anti-trypsin, irreversible non-competitive ELANE inhibitor”, the “effect of ELANE inhibitor treatment of ELANE or PMN media on cancer cell killing” value is “eliminated the ability of PMN media to kill cancer cells in vitro and in vivo” in experiment [1]; “protects cancer cells from apoptosis” in experiment [1] (listed as alpha-1-antitrypsin).

B1: full-length CD95: full length human CD95 (aa 1-335), isoform 1 (protein, listed as Homo sapiens)
chain: MLGIWTLLPLVLTSVARLSSKSVNAQVTDINSKGLELRKTVTTVETQNLEGLHHDGQFCHKPCPPGERKARDCTVNGDEPDCVPCQEGKEYTDKAHFSSKCRRCRLCDEGHGLEVEINCTRTQNTKCRCKPNFFCNSTVCEHCDPCTKCEHGIIKECTLTSNTKCKEEGSRSNLGWLCLLLLPIPLIVWVKRKEVQKTCRKHRKENQGSHESPTLNPETVAINLSDVDLSKYITTIAGVMTLSQVKGFVRKNGVNEAKIDEIKNDNVQDTAEQKVQLLRNWHQLHGKKEAYDTLIKDLKKANLCTLAEKIQTIILKDITSDSENSNFRNEIQSLV
Turning to B1, the “effect of overexpression on ELANE-mediated killing” value in experiment [2] is listed as “accelerated ELANE-mediated killing in human cancer cells”; in experiment [2] (listed as human CD95 (hCD95)), “did not protect against ELANE-mediated killing, but rather accelerated it”. Moreover, the “cancer cell death/toxicity on expression in the absence of ELANE” value (“cancer cell death/toxicity on expression” below) in the experiment on cancer cells is listed as “not toxic to cancer cells”.

B2: C2: hCD95 C-terminal peptide aa 212-331, mimics ELANE cleavage at site 2 (protein)
chain: SPTLNPETVAINLSDVDLSKYITTIAGVMTLSQVKGFVRKNGVNEAKIDEIKNDNVQDTAEQKVQLLRNWHQLHGKKEAYDTLIKDLKKANLCTLAEKIQTIILKDITSDSENSNFRNEI
For the molecule B2, the “cancer cell death/toxicity on expression” value with cancer cells is “toxic”; with cancer cells (listed as aa. 212-331 of SEQ ID NO:1) it was “induced cancer cell death in the absence of ELANE”.

B3: Cl: hCD95 C-terminal peptide aa 221-335, mimics ELANE cleavage at site 1 (protein)
chain: AINLSDVDLSKYITTIAGVMTLSQVKGFVRKNGVNEAKIDEIKNDNVQDTAEQKVQLLRNWHQLHGKKEAYDTLIKDLKKANLCTLAEKIQTIILKDITSDSENSNFRNEIQSLV
Turning to B3, the “cancer cell death/toxicity on expression” value in the experiment on cancer cells was “toxic”; in the experiment on cancer cells (listed as aa. 221-335 of SEQ ID NO:1), “induced cancer cell death in the absence of ELANE”.

B4: mouse CD95 (mCD95): mouse CD95 overexpressed in cancer cells (protein, UniProt P25446 22-327, looked up)
Tumor necrosis factor …: QGTNSISESLKLRRRVRETDKNCSEGLYQGGPFCCQPCQPGKKKVEDCKMNGGTPTCAPCTEGKEYMDKNHYADKCRRCTLCDEEHGLEVETNCTLTQNTKCKCKPDFYCDSPGCEHCVRCASCEHGTLEPCTATSNTNCRKQSPRNRLWLLTILVLLIPLVFIYRKYRKRKCWKRRQDDPESRTSSRETIPMNASNLSLSKYIPRIAEDMTIQEAKKFARENNIKEGKIDEIMHDSIQDTAEQKVQLLLCWYQSHGKSDAYQDLIKGLKKAECRRTLDKFQDMVQKDLGKSTPDTGNENEGQCLE
As for B4, the “effect of overexpression on ELANE-mediated killing” value in experiment [2] is reported as “did not protect against ELANE-mediated killing, but rather accelerated it”.

B5: murine ELANE: recombinant mouse ELANE activated with CTSC (protein, UniProt Q3UP87 27-265, looked up)
Neutrophil elastase: SEIVGGRPARPHAWPFMASLQRRGGHFCGATLIARNFVMSAAHCVNGLNFRSVQVVLGAHDLRRQERTRQTFSVQRIFENGFDPSQLLNDIVIIQLNGSATINANVQVAQLPAQGQGVGDRTPCLAMGWGRLGTNRPSPSVLQELNVTVVTNMCRRRVNVCTLVPRRQAGICFGDSGGPLVCNNLVQGIDSFIRGGCGSGLYPDAFAPVAEFADWINSIIRSHNDHLLTHPKDREGRTN
B5: the “cancer cell killing by murine ELANE” value in experiment [1] is recorded as “kills cancer cells”.
